Test results reported in patent US20240228570A9, “PLATFORM TECHNOLOGY FOR TREATMENT OF INFLAMMATORY, IMMUNOLOGICAL AND/OR AUTOIMMUNOLOGICAL DISEASES” (ellennbe GmbH, priority 2021, published 2024).

Tested on: inflammatory disease, immunological disease and/or autoimmunological disease
Test: Treatment of patients: condition as stated by patient and physician (pain, fatigue, daily life, duration of effect, relapses)
Assay type: in vivo, human
Conditions: Patient 11, ankylosing spondylitis; within half a year the biologics lost their effect
Protocol: All patients treated in the following Inventive Examples, Reference Examples and Comparative Examples were selected solely based on their diagnosis without performing a preselection in view of other parameters.
Annotation to the Tables 8A and B and 9 to 10: Patients were usually examined and treated in the same session. The success of the treatment or the effect thereof was then determined in the following session, usually one week later, and the next treatment performed as indicated in the tables.

B1: Cimzia®: biologic, certolizumab pegol (antibody, chains of the INN, looked up, V domains shown)
VH: EVQLVESGGGLVQPGGSLRLSCAASGYVFTDYGMNWVRQAPGKGLEWMGWINTYIGEPIYADSVKGRFTFSLDTSKSTAYLQMNSLRAEDTAVYYCARGYRSYAMDYWGQGTLVTVSS
VL: DIQMTQSPSSLSASVGDRVTITCKASQNVGTNVAWYQQKPGKAPKALIYSASFLYSGVPYRFSGSGSGTDFTLTISSLQPEDFATYYCQQYNIYPLTFGQGTKVEIK
modifications: Fab' PEG (pegol)
  effect of earlier treatment with biologics (patient's report): had little effect from the outset
